From patent US20200157519A1 (IMMUNWORK, published 2020) come the findings set out here.

This experiment concerns the target T1, mouse fibrin (mouse fibrinogen coated on the plate and treated with thrombin) (mouse, UniProt E9PV24 37-557; Q8K0E8 35-481; Q8VCM7 26-436).
T1 construct: Made on the plate from mouse fibrinogen (Sigma) with thrombin
T1 sequence (looked up) 1: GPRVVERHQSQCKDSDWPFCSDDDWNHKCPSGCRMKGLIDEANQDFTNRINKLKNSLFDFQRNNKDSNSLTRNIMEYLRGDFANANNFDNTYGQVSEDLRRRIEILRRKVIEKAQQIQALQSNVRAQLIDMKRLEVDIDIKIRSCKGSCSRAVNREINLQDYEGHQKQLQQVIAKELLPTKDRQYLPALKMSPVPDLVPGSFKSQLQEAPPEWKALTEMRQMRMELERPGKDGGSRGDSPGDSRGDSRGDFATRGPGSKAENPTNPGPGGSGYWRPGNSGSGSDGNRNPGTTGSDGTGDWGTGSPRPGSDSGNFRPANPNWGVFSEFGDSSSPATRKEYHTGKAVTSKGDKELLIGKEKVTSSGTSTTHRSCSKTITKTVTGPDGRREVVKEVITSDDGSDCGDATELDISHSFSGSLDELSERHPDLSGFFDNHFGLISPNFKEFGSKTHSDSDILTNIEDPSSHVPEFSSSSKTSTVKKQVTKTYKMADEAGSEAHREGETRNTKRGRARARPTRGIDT
T1 sequence (looked up) 2: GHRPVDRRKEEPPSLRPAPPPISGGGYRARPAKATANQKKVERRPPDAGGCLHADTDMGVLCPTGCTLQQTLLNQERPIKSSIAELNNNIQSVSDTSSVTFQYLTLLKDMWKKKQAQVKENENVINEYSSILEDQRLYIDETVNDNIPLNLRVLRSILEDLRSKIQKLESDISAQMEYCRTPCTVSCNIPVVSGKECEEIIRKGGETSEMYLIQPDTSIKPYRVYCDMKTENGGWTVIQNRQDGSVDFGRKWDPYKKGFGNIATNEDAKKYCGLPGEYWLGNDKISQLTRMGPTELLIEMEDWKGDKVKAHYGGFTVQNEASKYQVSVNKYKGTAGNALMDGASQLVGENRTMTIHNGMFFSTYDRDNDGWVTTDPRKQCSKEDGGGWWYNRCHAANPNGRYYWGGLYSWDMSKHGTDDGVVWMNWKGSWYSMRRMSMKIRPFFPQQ
T1 sequence (looked up) 3: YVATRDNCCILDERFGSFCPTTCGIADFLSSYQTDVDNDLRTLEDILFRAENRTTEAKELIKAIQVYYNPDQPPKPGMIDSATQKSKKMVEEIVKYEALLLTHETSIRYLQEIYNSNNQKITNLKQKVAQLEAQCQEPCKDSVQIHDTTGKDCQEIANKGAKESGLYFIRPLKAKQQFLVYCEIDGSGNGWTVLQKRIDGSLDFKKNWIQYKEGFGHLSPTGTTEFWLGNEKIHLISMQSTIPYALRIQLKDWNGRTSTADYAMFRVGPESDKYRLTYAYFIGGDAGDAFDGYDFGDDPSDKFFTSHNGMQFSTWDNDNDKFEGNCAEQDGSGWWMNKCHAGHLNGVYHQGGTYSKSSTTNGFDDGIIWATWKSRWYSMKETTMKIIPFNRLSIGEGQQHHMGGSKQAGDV
Description: ELISA at 200 nM on mouse fibrin plate, HRP-protein L. On the procedure: The procedures for ELISA analysis were similar to the procedures described in the previous Examples. Briefly, fibrinogen from mouse (Sigma) diluted with PBS was added to a 96-well polystyrene microplate at 100 μL/well, and then the plate was sealed and allowed to stand at 4° C., overnight.
Each fibrin plate was prepared as follows. 100 μL of TBS containing a final concentration of 1.0 U/mL thrombin (Sigma), 2 mM CaCl₂ and 7 mM L-cysteine (Merck) was added to the wells of the fibrinogen plate, which was then washed with TBS and blocked with the buffer (5% non-fat dry milk/PBS). Thereafter, 100 μL of reteplase-(3D5-scFv) at various final concentrations (600 nM, 200 nM, 66 nM, 22 nM, 7.4 nM, 2.5 nM, and 0.8 nM) were added to each well and incubate at room temperature for 1 hour. The plate was than washed for three times, and HRP-conjugated protein L diluted to 1/5000 was added to the wells and incubated for 1 hour at room temperature. The wells were washed three times and added with 100 μL of TMB substrate buffer. 5 minutes later, the color development was stopped with 1 M HCl. The optical density (OD) was measured at 450 nm using a microplate reader.
In general terms: In an ELISA, binding on a coated surface is turned into a signal by an enzyme label.

B1: recombinant reteplase-(3D5 VL-218-VH scFv α fibrin) protein (other)
chain: SYQGNSDCYFGNGSAYRGTHSLTESGASCLPWNSMILIGKVYTAQNPSAQALGLGKHNYCRNPDGDAKPWCHVLKNRRLTWEYCDVPSCSTCGLRQYSQPQFRIKGGLFADIASHPWQAAIFAKHRRSPGERFLCGGILISSCWILSAAHCFQERFPPHHLTVILGRTYRVVPGEEEQKFEVEKYIVHKEFDDDTYDNDIALLQLKSDSSRCAQESSVVRTVCLPPADLQLPDWTECELSGYGKHEALSPFYSERLKEAHVRLYPSSRCTSQHLLNRTVTDNMLCAGDTRSGGPQANLHDACQGDSGGPLVCLNDGRMTLVGIISWGLGCGQKDVPGVYTKVTNYLDWIRDNMRPASGGGGSGGGGSGGGGSDIQMTQSPSSLSASVGDRVTITCRASQDVSNNVAWYQQKPGKAPKLLIFWSPWLYSGVPSRFSGSGSGTDFTLTISSLQPEDFATYYCQQGWDSPVTFGQGTKVEIKRGSTSGSGKPGSGEGSTKGEVQLVESGGGLVQPGGSLRLSCAASGFTISDFGIHWVRQAPGKGLEWVASIWPSGGYTYYADSVKGRFTISADTSKNTAYLQMNSLRAEDTAVYYCARSWFYSWYDYWGQGTLVTVSS
notes: Fusion: reteplase, flexible linker, 3D5 VL, 218 linker, 3D5 VH; also called reteplase-(3D5 scFv); reteplase-(3D5-scFv)
As to B1, the binding result is recorded as “binds”.
